For 13 molecules, binding result and Kd results are on record in patent US20230295635, “DNA APTAMERS FOR EOSINOPHIL PEROXIDASE DETECTION” (McMaster University, published 2023).

The target in data set [1] is T1, Eosinophil peroxidase (EPX) (UniProt P11678;P11678 P11678:140-250,P11678:251-715). Put plainly: EMSA; value only in figure; weaker than EAP1-05; 1x SB pH 9. The conditions noted are these: tags: Cedarlane #342-60-0.1; untagged commercial protein; label: fluorescent (FAM).
Data set [2] deals with T1, Eosinophil peroxidase (EPX). The data set is described as follows: EMSA; 3 nM aptamer, 5 nM EPX; small positive impact of middle deletion. Particulars: tags: Cedarlane #342-60-0.1; untagged commercial protein; label: 5'-FAM. How it is done: Next, EAP1-05 was subjected to truncation and deletion experiments to shorten the aptamer and improve its binding ability. The aptamer was truncated by removing various DNA segments (FIG. 2A), and the fraction of aptamer bound to EPX was assessed by EMSA using 3 nM of aptamer and a single EPX concentration of 5 nM and calculating the decrease in free aptamer fluorescence in EMSA gels.

Data set [3] has the same target. The data set is described as follows: FP; PBS pH 7.4, room temperature. The conditions noted are these: tags: Cedarlane #342-60-0.1, untagged commercial protein, label: 5'-FAM.
The target is the same in data set [4]. Put plainly: FP; 0.5x SB, room temperature. The conditions noted are these: tags: Cedarlane #342-60-0.1; untagged commercial protein; label: 5'-FAM; 3' stem loop.
Data set [5] shares this target. The data set is described as follows: EMSA; 1x SB (50 mM Tris, 1 M NaCl, 5 mM MgCl2, 2 mM KCl, pH 9), poly(dI-dC); from loss of free aptamer band. Particulars: tags: Cedarlane #342-60-0.1; untagged commercial protein; label: 5'-FAM; 3' stem loop.
The target of data set [6] is Bovine serum albumin (BSA) (Bos taurus, UniProt P02769 P02769:25-607). The data set is described as follows: pulldown; HB; no TMB signal (BSA has no peroxidase activity). Particulars: label: 5'-biotin. How it is done:
(§1) EPX pulldown assay: Biotinylated EAP1-05T3 was immobilized on streptavidin-coated agarose beads as follows: 200 µL of streptavidin-coated agarose slurry was transferred into a 1.5 mL Eppendorf tube and washed with 500 µL of 1x HB (50 mM HEPES, 300 mM NaCl, 15 mM MgCl2, 0.01% Tween20, pH 7.5). 1 nmole of biotinylated EAP1-05T3 was added to this slurry and rotated gently for 1 h to bind the aptamers with the beads. The beads were washed 5x with 500 µL of 1x HB each time and finally suspended in 1000 µL of 1x HB and stored at 4° C. until use. 50 µL of this bead slurry was used for each pull-down experiment.
Specificity test: 50 µL of aptamer-conjugated beads from above were aliquoted in each tube and labelled for each experiment: Buffer, EPX, MPO, LPO, TPO and BSA respectively. 1 µM stock of each of protein was made in 1x HB. Next, 1.0 µL of each protein was added to their respected tube and incubated at room temperature for 30 minutes with occasional pipetting for homogeneous binding. Only buffer was added in the control experiment tube that was labelled as buffer. Then the beads were sedimented by brief centrifugation using a benchtop centrifuge and washed 3× using 300 µL 1x HB. Next, the beads were resuspended in 25 µL HB. […] This yellow solution was immediately transferred into 96 well plate and the OD was measured at 450 nm using Tecan plate reader. […]

In data set [7] the target is T1, Eosinophil peroxidase (EPX). Put plainly: pulldown; HB (50 mM HEPES, 300 mM NaCl, 15 mM MgCl2, pH 7.5), TMB signal; LoD 1 nM in buffer, 1.25 nM in sputum. The conditions noted are these: tags: Cedarlane #342-60-0.1; untagged commercial protein; label: 5'-biotin. The procedure:
as §1
Sensitivity test in buffer: EPX stocks of different concentrations (10.0, 5.0, 2.5, 1.25, 0.625, 0.312, 0.156, 0.078, 0.039 and 0.019 µM) were made in 1x HB. Similar to specificity test, 50 µL of aptamer conjugated beads slurry was transferred in each fresh Eppendorf tube (3 tubes for each concentration for triplicate experiments). 1.0 µL of each protein was added to their respected tube and incubated at room temperature for 30 minutes with occasional pipetting for homogeneous binding. Only buffer was added in the control experiment tube that was labelled as buffer. […] This yellow solution was immediately transferred into 96 well plate and the OD was measured at 450 nm using a Tecan plate reader. […]

Data set [8] deals with Myeloperoxidase (MPO) (UniProt P05164;P05164 P05164:165-273,P05164:279-745). Put plainly: pulldown; HB, 1 uM protein; no TMB signal. The conditions noted are these: tags: Cedarlane #426-10-0.1; untagged commercial protein; chain copies: 2; label: 5'-biotin.
For data set [9], the target named is Lactoperoxidase (LPO) (UniProt P80025 P80025:101-712). Put plainly: pulldown; HB, 1 uM protein; no TMB signal.

T1 sequence (P11678 140-250, chain 1 of 2): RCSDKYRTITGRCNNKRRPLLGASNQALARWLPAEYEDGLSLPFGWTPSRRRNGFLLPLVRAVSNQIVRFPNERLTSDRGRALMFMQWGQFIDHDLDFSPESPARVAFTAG
T1 sequence (P11678 251-715, chain 2 of 2): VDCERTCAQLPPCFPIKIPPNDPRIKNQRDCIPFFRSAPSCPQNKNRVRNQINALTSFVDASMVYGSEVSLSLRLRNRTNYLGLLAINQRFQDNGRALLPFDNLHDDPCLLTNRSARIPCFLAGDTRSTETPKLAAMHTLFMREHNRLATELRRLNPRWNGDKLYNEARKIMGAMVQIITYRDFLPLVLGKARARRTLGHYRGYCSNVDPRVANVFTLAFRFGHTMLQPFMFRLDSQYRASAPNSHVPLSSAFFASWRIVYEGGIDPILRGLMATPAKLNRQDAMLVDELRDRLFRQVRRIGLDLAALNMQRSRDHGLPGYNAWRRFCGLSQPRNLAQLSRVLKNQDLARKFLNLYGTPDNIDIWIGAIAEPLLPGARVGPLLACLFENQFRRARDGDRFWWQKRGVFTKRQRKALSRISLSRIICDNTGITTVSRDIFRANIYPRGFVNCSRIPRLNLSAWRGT
Myeloperoxidase (MPO), sequence (P05164 165-273, chain 1 of 2): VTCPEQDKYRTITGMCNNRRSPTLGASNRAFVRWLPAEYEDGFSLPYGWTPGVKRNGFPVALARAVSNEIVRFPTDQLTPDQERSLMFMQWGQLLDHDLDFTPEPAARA
Myeloperoxidase (MPO), sequence (P05164 279-745, chain 2 of 2): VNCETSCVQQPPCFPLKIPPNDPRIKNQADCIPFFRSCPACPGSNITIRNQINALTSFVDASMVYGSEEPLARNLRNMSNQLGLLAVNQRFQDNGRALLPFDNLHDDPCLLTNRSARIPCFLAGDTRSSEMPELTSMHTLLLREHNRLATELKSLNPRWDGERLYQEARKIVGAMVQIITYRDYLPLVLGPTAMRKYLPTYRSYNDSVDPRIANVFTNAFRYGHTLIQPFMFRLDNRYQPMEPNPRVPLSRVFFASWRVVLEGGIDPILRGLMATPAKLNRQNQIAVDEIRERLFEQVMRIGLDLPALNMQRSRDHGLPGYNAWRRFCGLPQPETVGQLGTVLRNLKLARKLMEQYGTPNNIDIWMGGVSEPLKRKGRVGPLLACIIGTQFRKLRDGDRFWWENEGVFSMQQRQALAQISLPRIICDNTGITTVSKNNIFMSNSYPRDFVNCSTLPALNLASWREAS
Bovine serum albumin (BSA), sequence (P02769 25-607, one chain of several): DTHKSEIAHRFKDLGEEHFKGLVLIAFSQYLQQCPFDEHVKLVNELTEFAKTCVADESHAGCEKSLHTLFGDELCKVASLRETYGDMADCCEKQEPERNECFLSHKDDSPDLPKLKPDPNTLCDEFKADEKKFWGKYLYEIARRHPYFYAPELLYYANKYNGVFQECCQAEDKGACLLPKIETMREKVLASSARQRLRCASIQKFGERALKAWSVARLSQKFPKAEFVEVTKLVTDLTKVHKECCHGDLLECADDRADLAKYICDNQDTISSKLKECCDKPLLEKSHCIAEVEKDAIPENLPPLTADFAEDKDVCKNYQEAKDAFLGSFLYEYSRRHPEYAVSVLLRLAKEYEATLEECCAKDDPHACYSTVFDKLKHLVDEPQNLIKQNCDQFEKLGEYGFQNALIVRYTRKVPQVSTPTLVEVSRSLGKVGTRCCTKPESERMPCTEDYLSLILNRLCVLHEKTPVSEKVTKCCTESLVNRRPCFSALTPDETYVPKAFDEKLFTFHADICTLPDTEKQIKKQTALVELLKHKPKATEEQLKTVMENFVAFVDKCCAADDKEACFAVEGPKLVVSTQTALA

B1: EAP2-40 (ssDNA)
DNA: ATGCCATCCTACCAACCAGGGGGCGCGGGAGGGGGCCTGACGTCGAGGGGGTTGGGGAGCTCTGAACTGG
Regarding B1, the binding result in data set [1] is “binds”.

B2: EAP2-18 (ssDNA)
DNA: ATGCCATCCTACCAACATGGGGATATCCGGCGGGGGCATCAGGGGGGAGTGCGGGTGAGCTCTGAACTGG
For B2, the binding result in data set [1] is “binds”.

B3: EAP2-01 (ssDNA)
DNA: ATGCCATCCTACCAACCGCGGGAGGAGACTGGTGTAGGGGGCATGGGATGGCCTGGGAGCTCTGAACTGG
As to B3, the binding result in data set [1] is on record as “binds”.

For ATGCCATCCTACCAATAGGGAGGGGGCTAGGGGGGAGCTCTGAACTCG (ssDNA) [EAP1-05T2], the binding result in data set [2] is recorded as “binds”.

B4: EAP1-20 (ssDNA)
DNA: ATGCCATCCTACCAACAGCAGCGGGCGGGGGCCAGTGGGGGATGTAGCCGGGGGTGGAGCTCTGAACTGG
With B4, the binding result in data set [1] was “binds”.

B5: EAP2-09 (ssDNA)
DNA: ATGCCATCCTACCAACACGACCGGTGTAGAGGGGGGTATACGGAATGGGGGTTGTGGAGCTCTGAACTGG
For the molecule B5, the binding result in [1] was “binds”.

With ATGCCATCCTACCAACCAGGGGGACAGTGCAAAGGGAGCTCTGAACTCG (ssDNA) [EAP1-05T3], the Kd in data set [3] stood at 4.8 nM.

B6: EAP1-05 (ssDNA)
DNA: ATGCCATCCTACCAACCAGGGGGACAGTGCAAAGGGGTAGGGAGGGGGCTAGGGGGGAGCTCTGAACTGG
For B6, the values for the Kd in [4], in data set [3] (3' stem loop) and in data set [5] were 36.6 nM, 4.3 nM and 9.2 nM, respectively.

B7: EAP1-01 (ssDNA)
DNA: ATGCCATCCTACCAACCACGGGGATCGGGTGGGGGCTAGGCGGCGTGTGCACGGGGGAGCTCTGAACTGG
On to B7, for which, in data set [1], the binding result is listed as “binds”.

B8: EAP2-10 (ssDNA)
DNA: ATGCCATCCTACCAACAGGGAGGGGGCGGTTAGGGAATGGTGGTCCGGGCGGGGTAGAGCTCTGAACTGG
Turning to B8, in data set [1], the binding result is reported as “binds”.

B9: EAP1-05T3BT (ssDNA)
DNA: TTTTTTTTTTATGCCATCCTACCAACCAGGGGGACAGTGCAAAGGGAGCTCTGAACTCG
Regarding B9, the binding result in data set [6] is listed as “no binding”; in data set [7], “binds”; in data set [8] it was “no binding”; in data set [9] it was “no binding”.

B10: EAP1-08 (ssDNA)
DNA: ATGCCATCCTACCAACCAGTTGCCGGTGGGGTGACCCGGTGGGGGAGGGTGTGGGGGAGCTCTGAACTGG
Turning to B10, the binding result in data set [1] was “binds”.

B11: EAP1-15 (ssDNA)
DNA: ATGCCATCCTACCAACCGGGGGAGCAAGGTGTAGGGGTAGGGGGCCATGCGAGGGGGAGCTCTGAACTGG
Turning to B11, the binding result in data set [1] is reported as “binds”.
